The values below come from article PMC8696220 (Cancer Communications, 2021).

The target of one assay is His-Fascin (human, UniProt Q16658 1-493). As to the kind of experiment: pull-down.
Another assay has as its target GST-Fascin (human, UniProt Q16658 1-493). As to the kind of experiment: pull-down.

B1: GST-fused C-terminal BROMO (659-832) domain of PCAF (domain or fragment)
chain: FSVIIKKQKEIIKKLIERKQAQIRKVYPGLSCFKDGVRQIPIESIPGIRETGWKPSGKEKSKEPRDPDQLYSTLKSILQQVKSHQSAWPFMEPVKRTEAPGYYEVIRFPMDLKTMSERLKNRYYVSKKLFMADLQRVFTNCKEYNPPESEYYKCANILEKFFFSKIKEAGLIDK
For the molecule B1, in the assay with His-Fascin, the binding result is “binds”.

B2: GST-fused N-terminal (1-492) domain of PCAF (domain or fragment)
chain: MSEAGGAGPGGCGAGAGAGAGPGALPPQPAALPPAPPQGSPCAAAAGGSGACGPATAVAAAGTAEGPGGGGSARIAVKKAQLRSAPRAKKLEKLGVYSACKAEESCKCNGWKNPNPSPTPPRADLQQIIVSLTESCRSCSHALAAHVSHLENVSEEEMNRLLGIVLDVEYLFTCVHKEEDADTKQVYFYLFKLLRKSILQRGKPVVEGSLEKKPPFEKPSIEQGVNNFVQYKFSHLPAKERQTIVELAKMFLNRINYWHLEAPSQRRLRSPNDDISGYKENYTRWLCYCNVPQFCDSLPRYETTQVFGRTLLRSVFTVMRRQLLEQARQEKDKLPLEKRTLILTHFPKFLSMLEEEVYSQNSPIWDQDFLSASSRTSQLGIQTVINPPPVAGTISYNSTSSSLEQPNAGSSSPACKASSGLEANPGEKRKMTDSHVLEEAKKPRVMGDIPMELINEVMSTITDPAAMLGPETNFLSAHSARDEAARLEERRG
As to B2, the binding result with His-Fascin is given as “binds”.

B3: GST-PCAF (enzyme)
chain: MSEAGGAGPGGCGAGAGAGAGPGALPPQPAALPPAPPQGSPCAAAAGGSGACGPATAVAAAGTAEGPGGGGSARIAVKKAQLRSAPRAKKLEKLGVYSACKAEESCKCNGWKNPNPSPTPPRADLQQIIVSLTESCRSCSHALAAHVSHLENVSEEEMNRLLGIVLDVEYLFTCVHKEEDADTKQVYFYLFKLLRKSILQRGKPVVEGSLEKKPPFEKPSIEQGVNNFVQYKFSHLPAKERQTIVELAKMFLNRINYWHLEAPSQRRLRSPNDDISGYKENYTRWLCYCNVPQFCDSLPRYETTQVFGRTLLRSVFTVMRRQLLEQARQEKDKLPLEKRTLILTHFPKFLSMLEEEVYSQNSPIWDQDFLSASSRTSQLGIQTVINPPPVAGTISYNSTSSSLEQPNAGSSSPACKASSGLEANPGEKRKMTDSHVLEEAKKPRVMGDIPMELINEVMSTITDPAAMLGPETNFLSAHSARDEAARLEERRGVIEFHVVGNSLNQKPNKKILMWLVGLQNVFSHQLPRMPKEYITRLVFDPKHKTLALIKDGRVIGGICFRMFPSQGFTEIVFCAVTSNEQVKGYGTHLMNHLKEYHIKHDILNFLTYADEYAIGYFKKQGFSKEIKIPKTKYVGYIKDYEGATLMGCELNPRIPYTEFSVIIKKQKEIIKKLIERKQAQIRKVYPGLSCFKDGVRQIPIESIPGIRETGWKPSGKEKSKEPRDPDQLYSTLKSILQQVKSHQSAWPFMEPVKRTEAPGYYEVIRFPMDLKTMSERLKNRYYVSKKLFMADLQRVFTNCKEYNPPESEYYKCANILEKFFFSKIKEAGLIDK
For the molecule B3, in the assay with His-Fascin, the binding result is “binds”.

B4: His-PCAF (enzyme)
chain: MSEAGGAGPGGCGAGAGAGAGPGALPPQPAALPPAPPQGSPCAAAAGGSGACGPATAVAAAGTAEGPGGGGSARIAVKKAQLRSAPRAKKLEKLGVYSACKAEESCKCNGWKNPNPSPTPPRADLQQIIVSLTESCRSCSHALAAHVSHLENVSEEEMNRLLGIVLDVEYLFTCVHKEEDADTKQVYFYLFKLLRKSILQRGKPVVEGSLEKKPPFEKPSIEQGVNNFVQYKFSHLPAKERQTIVELAKMFLNRINYWHLEAPSQRRLRSPNDDISGYKENYTRWLCYCNVPQFCDSLPRYETTQVFGRTLLRSVFTVMRRQLLEQARQEKDKLPLEKRTLILTHFPKFLSMLEEEVYSQNSPIWDQDFLSASSRTSQLGIQTVINPPPVAGTISYNSTSSSLEQPNAGSSSPACKASSGLEANPGEKRKMTDSHVLEEAKKPRVMGDIPMELINEVMSTITDPAAMLGPETNFLSAHSARDEAARLEERRGVIEFHVVGNSLNQKPNKKILMWLVGLQNVFSHQLPRMPKEYITRLVFDPKHKTLALIKDGRVIGGICFRMFPSQGFTEIVFCAVTSNEQVKGYGTHLMNHLKEYHIKHDILNFLTYADEYAIGYFKKQGFSKEIKIPKTKYVGYIKDYEGATLMGCELNPRIPYTEFSVIIKKQKEIIKKLIERKQAQIRKVYPGLSCFKDGVRQIPIESIPGIRETGWKPSGKEKSKEPRDPDQLYSTLKSILQQVKSHQSAWPFMEPVKRTEAPGYYEVIRFPMDLKTMSERLKNRYYVSKKLFMADLQRVFTNCKEYNPPESEYYKCANILEKFFFSKIKEAGLIDK
With B4, the binding result with GST-Fascin is recorded as “binds”.
